# Measured values: US20240158515A1 (Regeneron, published 2024)
# Where a chain is given by its changes, count along the chain named.
# T1: cynomolgus FGFR3b expressed with a C-terminal myc-myc-hexahistidine tag (mfFGFR3b.mmH) (cynomolgus)
# T1 construct: also called REGN3521; mf FGFR3b ecto (R357G)(E23-G377;R357G).mmH
# T1 chain: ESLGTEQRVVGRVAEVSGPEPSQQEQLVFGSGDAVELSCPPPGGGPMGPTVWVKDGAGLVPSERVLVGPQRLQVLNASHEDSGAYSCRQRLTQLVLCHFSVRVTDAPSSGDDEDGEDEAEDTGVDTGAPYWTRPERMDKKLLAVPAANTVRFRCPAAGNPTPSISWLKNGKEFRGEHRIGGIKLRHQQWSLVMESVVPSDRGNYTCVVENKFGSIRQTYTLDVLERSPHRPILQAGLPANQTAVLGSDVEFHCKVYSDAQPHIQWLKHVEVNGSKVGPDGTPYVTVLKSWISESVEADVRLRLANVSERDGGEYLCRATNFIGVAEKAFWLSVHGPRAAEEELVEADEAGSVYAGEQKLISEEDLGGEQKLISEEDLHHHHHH
# T2: human FGFR3b expressed with a C-terminal myc-myc-hexahistidine tag (hFGFR3b.mmH) (human)
# T2 construct: also called REGN3152; monomeric human FGFR3b
# T2 chain: T1 chain with V13A, S17P, S22G, A57T, L94R, K171R
# T3: murine FGFR3b expressed with a C-terminal myc-myc-hexahistidine tag (mFGFR3b.mmH) (murine)
# T3 construct: also called REGN3215; monomeric murine FGFR3b
# T3 chain: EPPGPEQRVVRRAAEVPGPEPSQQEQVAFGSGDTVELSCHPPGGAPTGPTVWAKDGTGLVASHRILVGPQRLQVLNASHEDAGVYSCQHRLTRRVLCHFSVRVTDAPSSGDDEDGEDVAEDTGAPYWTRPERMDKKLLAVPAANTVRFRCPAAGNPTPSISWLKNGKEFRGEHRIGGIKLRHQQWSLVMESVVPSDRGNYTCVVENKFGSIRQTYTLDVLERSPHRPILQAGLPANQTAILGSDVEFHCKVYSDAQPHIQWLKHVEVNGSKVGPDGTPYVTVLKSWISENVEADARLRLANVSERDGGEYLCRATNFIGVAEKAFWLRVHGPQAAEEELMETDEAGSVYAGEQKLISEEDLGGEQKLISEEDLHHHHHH
# T4: human FGFR3b expressed with a C-terminal murine Fc tag (hFGFR3b.mFc) (human)
# T4 construct: called dimeric; also called REGN3153; dimeric human FGFR3b
# T4 chain: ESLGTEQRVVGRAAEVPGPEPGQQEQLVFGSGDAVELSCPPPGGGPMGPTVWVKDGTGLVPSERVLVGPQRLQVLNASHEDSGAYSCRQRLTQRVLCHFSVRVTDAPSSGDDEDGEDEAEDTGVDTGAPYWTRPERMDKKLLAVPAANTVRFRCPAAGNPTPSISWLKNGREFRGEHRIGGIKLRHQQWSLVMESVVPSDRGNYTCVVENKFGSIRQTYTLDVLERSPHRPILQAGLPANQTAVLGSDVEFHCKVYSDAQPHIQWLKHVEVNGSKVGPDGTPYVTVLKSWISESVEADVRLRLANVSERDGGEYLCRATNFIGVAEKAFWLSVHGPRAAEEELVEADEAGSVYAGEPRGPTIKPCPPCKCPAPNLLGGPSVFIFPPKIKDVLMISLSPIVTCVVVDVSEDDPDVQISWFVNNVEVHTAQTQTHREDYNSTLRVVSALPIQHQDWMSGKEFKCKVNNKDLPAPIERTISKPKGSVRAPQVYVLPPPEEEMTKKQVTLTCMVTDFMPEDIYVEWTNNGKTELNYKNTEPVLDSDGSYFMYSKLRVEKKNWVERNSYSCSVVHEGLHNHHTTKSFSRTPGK
# B1: H4H30102P2 (antibody, human IgG4 S228P, kappa, V domains shown)
# VH: EVQLVESGGDLVQPGGSLRLSCAASGFTFSSYEMNWVRQAPGKGLEWVSYISNSGSTIYYADSVKGRFTISRDNAETSLYLQMNSLRAEDTAVYYCAREGWGAYCAGDCYSGFDIWGQGTMVTVSS
# VL: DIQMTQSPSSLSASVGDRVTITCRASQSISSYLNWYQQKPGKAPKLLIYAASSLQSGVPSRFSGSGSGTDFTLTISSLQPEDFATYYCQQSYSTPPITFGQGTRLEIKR
# B2: H4H30066P (antibody, human IgG4 S228P, kappa, V domains shown)
# VH: QVQLVQSGAEVKKPGASVKVSCKVSGYTLTELSMHWVRQAPGKGLEWMGGFDPEDGEIIYAQKFQGRVTMTEDTSTDTAYMDLSSLTSEDTAVYYCATEKQQLVRKYYFYYGLAVWGQGTTVTVSS
# VL: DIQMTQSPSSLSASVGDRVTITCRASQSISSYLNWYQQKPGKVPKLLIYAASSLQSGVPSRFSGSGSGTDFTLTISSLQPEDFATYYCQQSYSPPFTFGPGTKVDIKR
# notes: HCVR 22, LCVR 30
# B3: H4H30045P (antibody, human IgG4 S228P, kappa, V domains shown)
# VH: QVQLVQSGAEVKKPGASVKVSCKTSGYRFVNYGFSWVRQAPGQGLEWMGWISPYNGNTNYIQNLQDRITMTTDTSTNTAYMELTNLRSDDTAVYYCATLTGVHFDYWGQGTLVTVSS
# VL: AIQMTQSPSSLSASVGDRVTITCRASQGIRNDLGWYQQKPGKAPNLLIFETSRLQSGVPSRFSGSGSGTDFTLTINSLQPEDFATYYCLQDYNYPWTFGQGTKVEIKR
# notes: HCVR 179, LCVR 187
# B4: H4H30071P (antibody, human IgG4 S228P, kappa, V domains shown)
# VH: QVQLQQSGPGLVKPSQTLSLTCAISGDSVSRNSAAWNWIRQSPSSGLEWLGRTYYRSKWFYDYAISVKSRITVNPDTSKNQFSLHLNSVTPEDTAVYYCARGYGGYEDYFDYWGQGTLVTVSS
# VL: DIQMTQSPSSVSASVGDRVTITCRASQGISSWLAWYQQKPGKAPKLLIYGASSLQSGVPSRFSGSGSGTDFTLTISSLQPEDFATYFCQQGSSFPYTFGQGTKLEIKR
# notes: HCVR 42, LCVR 50
# B5: H4H30061P (antibody, human IgG4 S228P, kappa, V domains shown)
# VH: EVQLVESGGGLAQPGGSLKLSCEASGFTFSDSAMHWVRQASGKGLEWVGRIRSKANSYATGYAASVKGRFTISRDDSKNMAFLEMNSLKTEDTAVYYCLRQTYGDPWGQGTLVTVSS
# VL: DVVMTQSPLSLSVTLGQPASISCRSSLSLVYSDGNNYLNWFQQRPGQSPRRLLYKVFNRDSGVPDRFSGSGSGTDFTLKISRVEAEDVGVYYCMQGTHWPWTFGQGTKVEIKR
# Columns and labels:
# [1] = target: full length human FGFR3b on BaF3 cells (BAF3/FGFR3b, ACL11991) (human, UniProt P22607 23-808); test: cell-based or functional assay
# [2] = target: full length human FGFR3b S249C on BaF3 cells (BAF3/FGFR3b_S249C, ACL11986) (human, UniProt P22607 23-808); test: cell-based or functional assay
# [3] = target: T1, cynomolgus FGFR3b expressed with a …; test: SPR Biacore, mAb captured on anti-hFc, 25C
# Description: (§1) The CM5 Biacore sensor surface was derivatized by amine coupling with a monoclonal mouse anti-human Fc monoclonal antibody (REGN2567). […] Antibody-reagent association was monitored for 5 minutes while dissociation in HBS-EP running buffer was monitored for 10 minutes. At the end of each cycle, the anti-FGFR3 antibody capture surface was regenerated using a 10 sec injection of 20 mM phosphoric acid. All binding kinetics experiments were performed at 25° C.
# (§2) The specific SPR-Biacore sensorgrams were obtained by a double referencing procedure. The double referencing was performed by first subtracting the signal of each injection over a reference surface (anti-hFc) from the signal over the experimental surface (anti-hFc-captured anti-FGFR3 antibodies) thereby removing contributions from refractive index changes. In addition, running buffer injections were performed to allow subtraction of the signal changes resulting from the dissociation of captured antibodies from the coupled anti-hFc surface. Kinetic association (kₐ) and dissociation (kd) rate constants were determined by fitting the real-time sensorgrams to a 1:1 binding model using Scrubber v2.0c curve fitting software.
# [4] = target: T2, human FGFR3b expressed with a …; test: SPR Biacore, mAb captured on anti-hFc, 25C
# Description: as §1, §2
# [5] = target: T3, murine FGFR3b expressed with a …; test: SPR Biacore, mAb captured on anti-hFc, 25C
# Description: as §1, §2
# [6] = target: T5, human FGFR3c expressed with a C-terminal myc-myc-hexahistidine tag (hFGFR3c.mmH) (human, UniProt P22607 23-375); test: SPR Biacore, mAb captured on anti-hFc, 25C
# T5 construct: also called REGN3155; monomeric human FGFR3c
# Description: as §1, §2
# [7] = target: T4, human FGFR3b expressed with a …; test: SPR Biacore, mAb captured on anti-hFc, 25C
# Description: as §1, §2
# [8] = target: T5, human FGFR3c expressed with a …; test: SPR Biacore, mAb captured on anti-hFc, 25C; row marked NB
# Description: as §1, §2
# [9] = target: T4, human FGFR3b expressed with a …; test: competition ELISA: 4 nM hFGFR3b-mFc binding to plate-coated hFGF acidic
# Description: The fixed concentration of hFGFR3b or hFGFR3c proteins was selected to be near the concentration that generated 50% of the maximal binding (EC₅₀ value) to plate-adhered hFGF acidic or hFGF basic protein. […] The plates were then developed using TMB substrate solution (BD Biosciences) according to the manufacturer's recommended procedure and absorbance at 450 nm was measured on a Victor X5 plate reader.
# Binding data were analyzed using a sigmoidal (four-parameter logistic) dose-response model using GraphPad Prism software. […] Percent blocking of FGFR3 antibody at a given concentration was calculated based on the formula shown below.
# The ability of anti-FGFR3 antibodies to block human FGFR3b binding to hFGF acidic protein or hFGFR3c binding to hFGF acidic or hFGF basic proteins was evaluated using a sandwich ELISA-based blocking assay.
# [10] = target: T3, murine FGFR3b expressed with a …; test: SPR Biacore, mAb captured on anti-hFc, 25C; row marked NB
# Description: as §1, §2
Binder,90 nM mfFGFR3b.mmH Bind (RU) [3] [RU],Kd [3] [nM],koff [3] [s⁻¹],kon [3] [M⁻¹ s⁻¹],t½ [3] [min],90 nM hFGFR3b.mmH Bind (RU) [4] [RU],Kd [4] [nM],koff [4] [s⁻¹],kon [4] [M⁻¹ s⁻¹],t½ [4] [min],90 nM mFGFR3b.mmH Bind (RU) [5] [RU],Kd [5] [nM],koff [5] [s⁻¹],kon [5] [M⁻¹ s⁻¹],t½ [5] [min],30 nM hFGFR3b.mFc Bind (RU) [7] [RU],Kd [7] [nM],koff [7] [s⁻¹],kon [7] [M⁻¹ s⁻¹],t½ [7] [min],other results
B1,126,1.75,0.00023,131000,50.2,,,,,,,,,,,,,,,,"IC50 [M], BaF3 proliferation (CellTiter-Glo) with 1 nM FGF1 + 5 ug/ml heparin [1]: 1.86e-08 M; Max Blocking (%), BaF3 proliferation (CellTiter-Glo) with 1 nM FGF1 + 5 ug/ml heparin [1]: 41.1%; Max Blocking (%), BaF3 proliferation (CellTiter-Glo) with 1 nM FGF1 + 5 ug/ml heparin [2]: 34.5%"
B2,203,1.99,0.000779,391000,14.8,224,1.28,0.000635,496000,18.2,64.6,16.9,0.00487,288000,2.4,282,≤ 0.0158,≤ 1e-05,632000,≥ 1160,binding result [6]: no binding (tested: 90 nM); 90 nM hFGFR3c.mmH Bind (RU) [8]: 0.5 RU; % Blocking at 200 nM mAb [9]: 90%; IC50 [9]: 3.2 nM
B3,71.9,20.6,0.00882,429000,1.3,124,16.2,0.00624,385000,1.9,,,,,,266,0.581,0.000161,277000,71.8,binding result [5]: no binding (tested: 90 nM); 90 nM hFGFR3c.mmH Bind (RU) [6]: 77.1 RU; Kd [6]: 19.6 nM; koff [6]: 0.00746 s⁻¹; kon [6]: 381000 M⁻¹ s⁻¹; t½ [6]: 1.5 min; 90 nM mFGFR3b.mmH Bind (RU) [10]: 2.4 RU
B4,233,0.123,2.22e-05,180000,520,253,0.137,2.96e-05,216000,390,174,7.65,0.00169,220000,6.9,236,≤ 0.031,≤ 1e-05,322000,≥ 1160,90 nM hFGFR3c.mmH Bind (RU) [8]: -4.8 RU; % Blocking at 200 nM mAb [9]: 88%; IC50 [9]: 3.6 nM
B5,197,0.65,9.83e-05,151000,118,249,0.506,8.74e-05,173000,132,,,,,,260,≤ 0.0433,≤ 1e-05,231000,≥ 1160,90 nM hFGFR3c.mmH Bind (RU) [6]: 204 RU; Kd [6]: 0.526 nM; koff [6]: 7.92e-05 s⁻¹; kon [6]: 151000 M⁻¹ s⁻¹; t½ [6]: 146 min; 90 nM mFGFR3b.mmH Bind (RU) [10]: -8.5 RU
